Measured values published in patent US20240252795A1, “INGESTIBLE DEVICE FOR DELIVERY OF THERAPEUTIC AGENT TO THE GASTROINTESTINAL TRACT” (BIORA THERAPEUTICS, INC., priority 2018, published 2024).
Where “and” joins values, the source holds several entries; their conditions need not be identical. Identical values can stand only once. Like-named read-outs stand apart in the source and are kept apart here.

Experiments:
blood glucose = assay: Euglycemic clamp procedure: blood glucose and dextrose infusion rate after NOVOLIN R; type: in vivo, swine; conditions: for mean blood glucose level: euglycemic clamp
Protocol: (§1) Blood samples were kept on wet ice until centrifugation and separation of plasma. […] Glucose was monitored every five (5) minutes during the study by portable glucose analyzer (StatStrip (SS) hospital glucose monitoring system (Nova Biomedical, Waltham, MA)). At each time point, approximate 0.1 mL of blood was drawn and immediately placed on a glucose monitoring test strip, and the whole blood glucose concentration was measured by the SS in triplicate.
A euglycemic clamp procedure (ECP) was employed to compare pharmacokinetics and pharmacodynamics of regular human Insulin (NOVOLIN® R) delivered subcutaneously (SC) in the neck versus intra-jejunally (IJ) by the jet delivery device in the small intestine. ECP was used to quantify the amount of glucose required to maintain normoglycemia after exogenous bolus of insulin. […] The animals were anesthetized for the entire ECP.

[1] = PK of regular human insulin (NOVOLIN R) after SC or intra-jejunal jet delivery, blood insulin levels; type: in vivo, swine; conditions: for Cmax / Tmax: IJ administration by jet delivery device, blood insulin
Protocol: A total of 18 Yorkshire female swine in good health and weighing 60-70 kg each were included in this study. Swine were divided into two groups with 9 animals per group. […] A sham surgical laparotomy was performed. […] The jet delivery device was configured with the single nozzle in an axial orientation.
Swine were divided into two groups with 9 animals per group. […] In all 18 animals, a laparotomy procedure was performed to expose the abdominal cavity. Animals remained under anesthesia during the entire procedure for the PK/PD study.
For the laparotomy in group 02, a small segment of the jejunal mucosa and serosa was exposed by midline laparotomy and the jet delivery device was inserted through antimesenteric incision.
as §1
The animals were anesthetized for the entire ECP.

[2] = pig, in vivo
[3] = Adalimumab plasma PK after ID administration via 4-nozzle jet delivery device; type: in vivo, female Yorkshire pigs (Sus scrofa domesticus); conditions: for AUC0-10 (±SEM) / Tmax: 40 mg, N=4, plasma; for AUC0-10 Corrected for Dose (±SEM): N=4; for Bioavailability over IV (±SEM): vs Example 5 IV control; for Bioavailability over IV (±SEM) / Bioavailability over SC (±SEM): AUC corrected for dose used; for Bioavailability over SC (±SEM): vs Example 5 SC control
Protocol: A total of 9 healthy female Yorkshire pigs (Sus scrofa domesticus) having a body weight of 24-30 kg were used in this study. […] Each dose group received test article via intraduodenal (ID) administration. The study design is shown below in Table 21.
Animals were housed two per cage and fasted for a minimum of 12 hours prior to dosing. Food was returned at 4 hours post-dose. Water was supplied ad libitum. The dosing was as follows: Dose day 1: group 1 (n=2), and group 2 (n=3); Dose day 2: group 2 (n=3), and group 1 (n=2).
Intraduodenal (ID) administration was performed as follows.
(§2) Each blood sample was collected from the pig jugular vein, or other suitable vessel via direct venipuncture, placed into a chilled tube containing K2-EDTA as the anticoagulant, and inverted several times to mix. Blood samples were kept on wet ice until centrifugation. […] Plasma was collected into pre-labeled polypropylene tubes and placed in a freezer set to maintain −60 to −80° C. prior to analysis.
(§3) All plasma samples were diluted by 1:100 dilution. Diluted samples were processed in duplicates and the mean Optical Density (O.D.) was measured using a SpectraMax plate reader is and utilizing SoftMax Pro software for analysis. The Lower Limit of Quantification (LLOQ) was calculated by adding 10× the standard deviation value of the blanks O.D. to the average of the blank standard O.D. values. […] The area under the concentration curve (AUC) was calculated with the trapezoidal rules.
The PK results were compared to a subset of data from Example 5. The bioavailability was determined by comparison with Example 5 control arms (SC and IV administration).

TNFα = TNFα (Homo sapiens, UniProt P01375); assay: LOCI competitive inhibition assay of adalimumab binding to TNFα after jet dispensing; conditions: delivery pressures up to 300 psi, nozzle diameter down to 0.35 mm
Protocol: The drug (adalimumab) was loaded into the ingestible device and fired through a nozzle with varying diameters at various pressure conditions.
FIGS. 57A-57B illustrate the general principle of the assay.
Drug binding was detected using Luminescent Oxygen Channeling (LOCI™)—a competitive binding assay. Signal was detected by comparing to a non-drug carrier control and an artificially damaged drug using a commercial FAB fragmentation kit.
Drug function was determined through a competition binding assay comparing drug binding function for drug dispensed via standard delivery mechanism and drug delivered via the ingestible device with various pressures.

[4] = Adalimumab plasma PK after ID administration via endoscopic injection needle; type: in vivo, female Yorkshire pigs (Sus scrofa domesticus); conditions: 5 pigs in two studies
Protocol: A total of 5 healthy female Yorkshire pigs (Sus scrofa domesticus) having a body weight of ˜25-40 kg were used in these studies, 3 in a first study and 2 in a second study. Each animal received test article via intraduodenal (ID) administration via an injection needle. The study design is shown below in Table 34.
Animals were housed one per cage and fasted for a minimum of 12 hours prior to dosing. Food was returned at 4 hours post-dose. Water was supplied ad libitum.
Intraduodenal (ID) administration was performed as follows. […] Once it was confirmed that the endoscopic injection needle was placed in the correct region, approximately 0.5 mL of saline was injected within the lamina propria of the mucosa to create a small bleb in the mucosa. The formulation was then injected into the bleb and flushed with approximately 0.8 mL of saline. […]
as §3, with “reader” for “reader is”

[5] = Non-reducing SDS-PAGE protein profile of jet-dispensed adalimumab (drug structure); type: physicochemical
Excerpt: The purpose of this study was to evaluate the effects that nozzle geometry and delivery pressure have on drug structure when the drug is dispensed from a jet delivery device using different delivery pressures and nozzle sizes. Structural changes in the jet-delivered drug could potentially result in compromised functioning of the drug in vitro.
The drug (adalimumab drug substance (DS)) was loaded into the simulated capsule jet delivery device and ejected using different pressures and nozzle geometries.
The resulting protein concentrations were obtained using an extinction coefficient of 1.4 and Gen5 version 3.03.14 program. The samples were then diluted and the protein profiles were analyzed using non-reducing SDS-PAGE. Protein banding patterns of the dispensed samples were compared to that of the unmanipulated drug and the drug artificially damaged (enzymatically degraded) via the papain in a commercial Fab fragmentation kit (Pierce™ Fab Preparation Kit).
For gel analysis, protein was mixed with non-reducing sample buffer. Samples were not heated. 5 μg of samples and controls were loaded per lane of a SDS-PAGE gel (4% Acrylamide-Bis stacking, 12% resolving; see Table 26). The gel was electrophoresed at 195 V and stained in R-250 Coomassie Blue dye.

[6] = Adalimumab plasma PK after ID (2-nozzle jet delivery device), SC or IV administration; type: in vivo, female Yorkshire pigs (Sus scrofa domesticus)
Protocol: A total of 21 healthy female Yorkshire pigs (Sus scrofa domesticus) having a body weight of 25-30 kg were used in this study. Five (N=5) were used in each of dose Groups 1-3 (intraduodenal (ID) administration via an endoscopically placed ingestible device), and three (N=3) were used in each of dose Group 4 (SC administration) and dose Group 5 (IV administration). The study design is shown below in Table 16.
Animals were housed two per cage and fasted for a minimum of 12 hours prior to dosing. Food was returned at 4 hours post-dose. Water was supplied ad libitum. The dosing was as follows: Dose day 1: group 1 (n=3), and group 3 (n=2); Dose day 2: group 2 (n=3), and group 1 (n=2); Dose day 3: group 3 (n=3), and group 2 (n=2); Dose day 4: groups 4 (n=3), and group 5 (n=3). Following the 240-hour post-dose blood collection the animal was euthanized via euthanasia solution IV bolus dose.
For subcutaneous (SC) administration, animals were placed in dorsal recumbence and the SC injection site asceptically prepared with alcohol. The test article was administered as an SC injection into a “skin tent” on the belly of the pig.
as §2
All plasma samples were diluted by 1:100 dilution. Plasma samples were reanalyzed with a 1:1000 dilution from animals 6287, 6289, 6332, 6334, 6336, 6149, 6335, and 6337. Plasma samples close to the lower limit of quantification (LLOQ) were repeated with a 1:5 dilution from animals 6138 and 6137. […] Therefore, the data from animal 6138 and 6137 were not included in the final PK analysis. […] The area under the concentration curve (AUC) was calculated with the trapezoidal rules.

[7] = SC administration, swine, group average
[8] = SC administration, swine, individual animals
[9] = Group 1: ID, 4 Nozzle device 320 PSIG
[10] = Group 2: ID, 4 Nozzle device 350 PSIG
[11] = Group 1: ID, 2 nozzle jet delivery device 220 PSIG, 40 mg, N=2, plasma
[12] = Group 3: ID, 2 Nozzle device 320 PSIG, N=5, data from Example 5
[13] = Group 3: ID, 2 Nozzle device 320 PSIG, data from Example 5
[14] = Group 3: ID, 2 nozzle jet delivery device 320 PSIG, 40 mg, N=5, plasma
[15] = Group 4: SC control, N=3, data from Example 5
[16] = Group 4: SC control, data from Example 5
[17] = Group 5: IV control, N=3, data from Example 5

Sequence of TNFα (P01375 77-233 limits assumed): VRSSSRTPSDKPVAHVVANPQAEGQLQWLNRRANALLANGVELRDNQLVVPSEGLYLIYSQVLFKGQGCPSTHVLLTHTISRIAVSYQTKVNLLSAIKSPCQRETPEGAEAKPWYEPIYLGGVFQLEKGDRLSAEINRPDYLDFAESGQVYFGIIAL

NOVOLIN® R: regular human insulin (NOVOLIN® R)
mean blood glucose level (blood glucose; IJ administration group): 89.6 mg/dL
mean blood glucose level (blood glucose; SC administration group): 83.5 mg/dL
mean dextrose infusion rate, IJ versus SC group (blood glucose; from 75 minutes to 420 minutes post-administration): higher in the SC administration group
Cmax ([1]; Average of 8 animals): 77.40 uIU/mL
Tmax ([1]; Average of 8 animals): 55.63 min
Cmax ([1]; individual animal): 40.93 uIU/mL and 96.77 uIU/mL and 5.03 uIU/mL and 7.96 uIU/mL and 48.77 uIU/mL and 85.38 uIU/mL and 207.96 uIU/mL and 126.39 uIU/mL
Tmax ([1]; individual animal): 20 min and 50 min and 90 min (2×) and 40 min (3×)
blood insulin level in animal 18P18 ([1]; SC administration group, compared with rest of group): significantly higher than the rest of the animals in the group
Cmax of blood insulin, Average [1, 7]: 202.94 uIU/mL
Tmax of blood insulin, Average [1, 7]: 1.452 h
Cmax of blood insulin [1, 8]: 451.00 uIU/mL and 60.74 uIU/mL and 354.00 uIU/mL and 356.60 uIU/mL and 65.71 uIU/mL and 59.18 uIU/mL and 73.34 uIU/mL
Tmax of blood insulin [1, 8]: 50 min (2×) and 180 min and 105 min and 30 min and 120 min
maximum plasma concentration Cmax, SC group compared with IJ group ([1]; SC versus IJ administration): higher than that of the IJ administration group
time to maximum plasma concentration (Tmax) ([1]; jejunum (IJ) administration via jet delivery device, swine, group mean): 0.9272 h

dulaglutide: long-acting GLP-1 receptor agonist, GLP-1 analogue linked to modified human IgG4 Fc, about 63 kDa
Bioavailability relative to IV [2]: 26.51%
Bioavailability relative to SC [2]: 49.11%
plasma level in one animal in Group 1 (no. 8487; ID) [2]: below the limit of detection
(AUC)T0-T240 h ± SEM ([2]; 1.2 mg): 4355.86 ng·h/mL
AUCID (mean ± SEM) ([2]; 1.2 mg): 3890.00 ± 94.73 ng·h/mL
Cmax ([2]; 1.2 mg): 70.65 ng
Tmax ([2]; 1.2 mg): 8 h
Bioavailability relative to IV ([2]; iv): 100%
(AUC)T0-T240 h ± SEM ([2]; iv, 1.2 mg): 16429.33 ng·h/mL
Cmax ([2]; iv, 1.2 mg): 632.93 ng
Tmax ([2]; iv, 1.2 mg): 1 h
Bioavailability relative to SC ([2]; sc): 100%
(AUC)T0-T240 h ± SEM ([2]; sc, 1.2 mg): 8869 ng·h/mL
Cmax ([2]; sc, 1.2 mg): 141.3 ng
Tmax ([2]; sc, 1.2 mg): 6 h

adalimumab
AUC0-10 (±SEM) [3, 9]: 23.831 µg·days/mL
Tmax [3, 9]: 24 h
AUC0-10 Corrected for Dose (±SEM) [3, 9]: 23.997 µg·days/mL
Bioavailability over IV (±SEM) [3, 9]: 19.560
Bioavailability over SC (±SEM) [3, 9]: 26.120
AUC0-10 (±SEM) [3, 10]: 14.603 µg·days/mL
Tmax [3, 10]: 24 h
AUC0-10 Corrected for Dose (±SEM) [3, 10]: 15.171 µg·days/mL
Bioavailability over IV (±SEM) [3, 10]: 12.367
Bioavailability over SC (±SEM) [3, 10]: 16.513
ability of the drug to bind to the target TNFα after jet delivery (TNFα): did not significantly inhibit the ability of the drug to bind to the target TNFα
quantifiable levels in plasma [4]: one animal from the first study and one animal from the second study had quantifiable levels
protein banding pattern, non-reducing SDS-PAGE ([5]; 5 μg per lane, jet-delivered samples versus unmanipulated drug and papain-degraded controls): same banding pattern as the unmanipulated drug
structural changes after dispensing ([5]; dispensing pressures and nozzle sizes employed): No structural changes were evident
Cmax [6, 11]: 570 ng/mL
Tmax [6, 11]: 24 h
Tmax ([6]; Group 2: ID, 2 nozzle jet delivery device 270 PSIG, 40 mg, N=4, plasma): 24 h
AUC0-10 (±SEM) [6, 12]: 32.31 µg·days/mL
AUC0-10 Corrected for Dose (±SEM) [6, 12]: 32.25 µg·days/mL
Cmax [6, 12]: 5000 ng/mL
Tmax [6, 12]: 24 h
Bioavailability over IV (±SEM) [6, 13]: 26.25
Bioavailability over SC (±SEM) [6, 13]: 35.38
Cmax [6, 14]: 5000 ng/mL
Tmax [6, 14]: 24 h
AUC0-10 (±SEM) [6, 15]: 91.87 µg·days/mL
Tmax [6, 15]: 140 h
Bioavailability over IV (±SEM) [6, 16]: 74.89
Bioavailability over SC (±SEM) [6, 16]: 100
Tmax ([6]; Group 4: SC, 40 mg, N=3, plasma): 140 h
Bioavailability over IV ([6]; Group 5: IV): 100%
AUC0-10 (±SEM) [6, 17]: 122.67 µg·days/mL
Tmax [6, 17]: 3.12 h
Bioavailability over IV (±SEM) ([6]; Group 5: IV control, data from Example 5): 100
Tmax ([6]; Group 5: IV, 40 mg, N=3, plasma): 3.12 h
